These sequences were tested on TO-N3 (biotin conjugate) (assay: pull-down binding Z-score (relative to library population); higher = stronger binding). Conditions: RNA library: Library-2.
Procedure, shortened: (§1)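 Streptavidin beads bearing 100 pmol of a biotin-conjugated small molecule were incubated for 60 min at 25 °C with 1 μg of heat-folded, Cy5- or Cy3-end-labelled RNA library in phosphate/NaCl/KCl buffer. Hot SDS eluted the RNA that stayed bound after three washes, and this RNA was hybridised for 20 h at 55.5 °C to a DNA barcode microarray. Binding was expressed as a Z-score against the library mean and standard deviation, after subtraction of a beads-only signal and trimmed averaging of barcoded replicate probes.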

In order of rising “pull-down binding Z-score” value:
1. UGUUGACUGAAUAAUAAACA [hsa-mir-3139]  -1.23
2. UUCAUUUUAUUUAUGAUGAG [hsa-mir-496]  -1.2
3. UGUUUUUGCCAUUAAAAAUAAUGGCAUUAAAAGUAAUGGCAAAAACG [hsa-mir-548al]  -1.01
4. UGUUGGUUGAAGAUGCCUUUCAACA [hsa-mir-552]  -0.937
5. UGUUCGCUUUAUUUAUGAUGAAUCA [hsa-mir-539]  -0.916
6. UGUUUAUGUUAUUUAUGGUUAAACA [hsa-mir-376c]  -0.887
7. UUCAUUCAUUCGUUUGCACAUUCGGUGAA [hsa-mir-493]  -0.736
8. UGUUCGUUUUGCUCAUGUCGAAUC [hsa-mir-487b]  -0.701
9. UUAUCUGUCACCAGUCAGAUAACUGUCACCAGUCAGUUAA [hsa-mir-4764]  -0.684
10. UUAACAUGUUGAGCAUUACUCAUGUUAG [hsa-mir-3684]  -0.597
11. UUCCGGUGAUUAUCACAGCCAUGCCUUUACCUCCAGAA [hsa-mir-4493]  -0.594
12. UUCAUAGGGAAGCCUUUCCAUGAA [hsa-mir-4738]  -0.559
13. UUCACAGACUCUCCAAAAGUCUGAA [hsa-mir-4670]  -0.543
14. UGUUUCUUUAUUGAGGACGAAACA [hsa-mir-329-2]  -0.5
15. UUAUGUUUCUGAUCCGAAUAUAA [hsa-mir-208b]  -0.483
16. UGUUGAGCGCAGUAAGACAACA [hsa-mir-3529]  -0.482
17. UUCAUGUUCACUGAAAGGUAGAUUUUAAAAACAUGAA [hsa-mir-4790]  -0.371
18. UGUUUGUGUCUAAACUAUCAAACG [hsa-mir-122]  -0.332
19. UUAAUGAGGCCAUAGA [hsa-mir-6863]  -0.328
20. UUCAGAUUUUGGAACAUUUCGGAUUUUGGA [hsa-mir-1290]  -0.297
21. UUAACCUAAAAUGAGAAGGCUAA [hsa-mir-633]  -0.212
22. UUAUUCAGAGAGGCUAGAUCCUCUGUGUUGAGAAGGAUCA [hsa-mir-433]  -0.151
23. UUAAAUGUGUCAUUUAAAAAUUCAG [hsa-mir-1972-1_1972-2]  -0.138
24. UUAUUUGAGAUGAGUUACAUCUUGGAGG [hsa-mir-1204]  -0.0949
25. UUACUCACCCUCUCAAAACCGAGACUCAGAGACGUUGGGUAA [hsa-mir-7973-2]  -0.0759
26. UUAGCCCAGCAAUGGGAGAGUGCUAA [hsa-mir-4636]  0.111
27. UUAUACCUGAUGCUCACGUAUAA [hsa-mir-208a]  0.187
28. UUCAGCCUAAAGCAAUGAGAAGCCUCUGAAAGGCUGA [hsa-mir-1827]  0.212
29. UUACCCAACGUCUCUGAGUCUCGGUUUUGAGAGGGUGAGUAA [hsa-mir-7973-1]  0.268
30. UUACUGCAGGGAUCUUAGCAGUAC [hsa-mir-583]  0.303
31. UGUUCAUUCACAUGAUCAUAAGUGGACA [hsa-mir-4643]  0.388
32. UGUUUCUUUAAUGAGGACGAAACA [hsa-mir-329-1]  0.46
33. UUCCUUGUCUGUAGCCAUGUCUAUGGGCUCUUGAG [hsa-mir-571]  0.461
34. UUCAGAGUCAAUAUAAUUUUCUAG [hsa-mir-29a]  0.485
35. UGUUGGCAGCCCAAGAUGACA [hsa-mir-4686]  0.581
36. UGUUUAACUCCUCUCCACGUGAACA [hsa-mir-499a]  0.731
37. UGUUGGGGGGACA [hsa-mir-4262]  1.67

These sequences were tested on TO-N3-2 (biotin conjugate) in the same assay as above. Conditions: RNA library: Library-2.
Procedure, shortened: as §1

In order of rising “pull-down binding Z-score” value:
1. UGUUCACUUUCUAUAUGAUGAAUA [hsa-mir-656]  -1.7
2. UGUCUUUUUUUUUUUCUGAGACA [hsa-mir-1273c]  -1.36
3. UGUCAUUACUUUUAAUGGUA [hsa-mir-548h-1]  -1.24
4. UGUCAUUACUUUCAAUGGCA [hsa-mir-548h-2]  -1.22
5. UGUUUUUGCCAUUAAAAAUAAUGGCAUUAAAAGUAAUGGCAAAAACG [hsa-mir-548al]  -1.14
6. UGUUCGCUUUAUUUAUGAUGAAUCA [hsa-mir-539]  -1.01
7. UGUUUAUGUUAUUUAUGGUUAAACA [hsa-mir-376c]  -0.967
8. UGUUUCUUUAUUGAGGACGAAACA [hsa-mir-329-2]  -0.89
9. UGUUGACUGAAUAAUAAACA [hsa-mir-3139]  -0.846
10. UGUAUAGUAUUAUUCAAUACC [hsa-mir-1912]  -0.694
11. UUAACCUAAAAUGAGAAGGCUAA [hsa-mir-633]  -0.637
12. UGUUUGUGUCUAAACUAUCAAACG [hsa-mir-122]  -0.625
13. UGUUGGUUGAAGAUGCCUUUCAACA [hsa-mir-552]  -0.598
14. UGUGAGAGCUACUAAGUCUUAUA [hsa-mir-8076]  -0.596
15. UGUAUGUGUAAAUACAUAUCCACACA [hsa-mir-4789]  -0.589
16. UGUGGCCUUUUUGCCUUUUCUAAAGGCCACAU [hsa-mir-1250]  -0.551
17. UGUCAUUACUUUUAACUGUA [hsa-mir-548h-5]  -0.469
18. UGUCGUAGAAAGUAAUGGCA [hsa-mir-548l]  -0.387
19. UGUCUUGUAGCCAGGAUAUUGUUUUAAAGAA [hsa-mir-4668]  -0.355
20. UGUUUCUUUAAUGAGGACGAAACA [hsa-mir-329-1]  -0.326
21. UGUCAUUGAAAGUAAUAGCA [hsa-mir-548h-3]  -0.319
22. UUAAUGAGGCCAUAGA [hsa-mir-6863]  -0.294
23. UGUGUGCUGAGAAAAUUCACACA [hsa-mir-5580]  -0.274
24. UUAAAUGUGUCAUUUAAAAAUUCAG [hsa-mir-1972-1_1972-2]  -0.257
25. UGUUAGUGUUCAAGUCUACA [hsa-mir-4802]  -0.255
26. UGUUCAUUCACAUGAUCAUAAGUGGACA [hsa-mir-4643]  -0.251
27. UUAACAUGUUGAGCAUUACUCAUGUUAG [hsa-mir-3684]  -0.162
28. UGUAUAUAGCAUAUGUGUAUACAUACACACACACACACACACACACACA [hsa-mir-8485]  -0.143
29. UGUUCGUUUUGCUCAUGUCGAAUC [hsa-mir-487b]  -0.133
30. UGUGUGUACUCACAGCCCCUCACACA [hsa-mir-942]  -0.11
31. UGUUGAGCGCAGUAAGACAACA [hsa-mir-3529]  -0.0925
32. UGUAUUUUUCAGCAAGGCAAGGGCUUUGAUGUCUUGUA [hsa-mir-8065]  -0.0538
33. UGUGCCUUGCCUUUCCUUUGGCACA [hsa-mir-4438]  -0.0304
34. UGUCUUGUGUCUGUAAGUAU [hsa-mir-1275]  -0.00915
35. UGUACGCUUUAUUUGUGACGUAGG [hsa-mir-1197]  0.0488
36. UGUUUAACUCCUCUCCACGUGAACA [hsa-mir-499a]  0.116
37. UGUAAAUAACUACAAUUCUCUUAACUCCGUAGCAGUUGC [hsa-mir-7844]  0.177
38. UGUGGUCACCCACUCU [hsa-mir-4316]  0.297
39. UGUAAGUUUGCGAUGAGACACUACA [hsa-mir-144]  0.341
40. UGUUCAGUGGGAUUUGGAGA [hsa-mir-8061]  0.449
41. UGUUGGCAGCCCAAGAUGACA [hsa-mir-4686]  0.58
42. UGUUAAGGCAUGUUCAGGAACA [hsa-mir-1265]  0.652
43. UGUUGGGGGGACA [hsa-mir-4262]  0.707
44. UGUGCCUGCCUUCGAAGUGCACGGCAGG [hsa-mir-4297]  0.753
45. UGUUCAUGUCUCUCUGUGCACAGGGGACGAGAGUCA [hsa-mir-4420]  0.762
46. UGUGGCAGUGGCAGAGGUCGCUACA [hsa-mir-6856]  1.13
47. UGUGCCCCGUACCGGACAGG [hsa-mir-7160]  1.21
48. UGUGUUCAGUGGAACCAAGGUAAACACA [hsa-mir-624]  1.22
49. UGUGUGUCGCUCCGGGUCCACG [hsa-mir-574]  1.25
50. UGUACAGGUGAGCGGAUGUUCUGCACA [hsa-mir-3120]  1.57
51. UGUGACCUGGAGCAGCUCAGGAGGGCUUCCUGGGUGAGGUGGCAGGUUACA [hsa-mir-4311]  1.69
52. UGUGGUGGGUGGUGGCCUGCGGUGAGCAGGGCCCUCA [hsa-mir-1228]  2.1
53. UGUGGUUGGGGCCAUGGCGGGUGGGCAGCCCAGCCUCUGAGCCUUCCU [hsa-mir-1238]  2.37
54. UGUGGCCUGGGGGUUGAGGACCCCUGCUCUA [hsa-mir-645]  2.75
